Experimental data taken from patent publication US20110318339A1.

What was measured:
[1] = biological target: recombinant mouse DLL4 (Cat# 1389-D4-050/CF, R&D Systems) (mouse) (UniProt Q9JI71); test: ELISA, mDLL4 coated 0.5 ng/ul, Fab 50.00 nM
[2] = biological target: recombinant mouse DLL4 (Cat# 1389-D4-050/CF, R&D Systems) (mouse) (UniProt Q9JI71); test: ELISA, mDLL4 coated 0.5 ng/ul, Fab 25.00 nM
[3] = biological target: recombinant mouse DLL4 (Cat# 1389-D4-050/CF, R&D Systems) (mouse) (UniProt Q9JI71); test: ELISA, mDLL4 coated 0.5 ng/ul, Fab 12.50 nM
[4] = biological target: recombinant mouse DLL4 (Cat# 1389-D4-050/CF, R&D Systems) (mouse) (UniProt Q9JI71); test: ELISA, mDLL4 coated 0.5 ng/ul, Fab […]
[5] = biological target: recombinant mouse DLL4 (Cat# 1389-D4-050/CF, R&D Systems) (mouse) (UniProt Q9JI71); test: ELISA, mDLL4 coated 0.5 ng/ul, Fab 0.78 nM
[6] = biological target: recombinant mouse DLL4 (Cat# 1389-D4-050/CF, R&D Systems) (mouse) (UniProt Q9JI71); test: ELISA, mDLL4 coated 0.5 ng/ul, Fab 100.00 nM
[7] = biological target: recombinant mouse DLL4 (Cat# 1389-D4-050/CF, R&D Systems) (mouse) (UniProt Q9JI71); test: ELISA, mDLL4 coated 0.5 ng/ul, Fab 6.25 nM
[8] = biological target: recombinant human DLL4 (Cat# 1506-D4/CF, R&D Systems) (human) (UniProt Q9NR61); test: ELISA, DLL4 coated, Fab 50 nM
[9] = biological target: recombinant human DLL4 (Cat# 1506-D4/CF, R&D Systems) (human) (UniProt Q9NR61); test: ELISA, DLL4 coated, Fab 100 nM
[10] = biological target: recombinant human DLL4 (Cat# 1506-D4/CF, R&D Systems) (human) (UniProt Q9NR61); test: ELISA, DLL4 coated, Fab 12.5 nM
[11] = biological target: recombinant human DLL4 (Cat# 1506-D4/CF, R&D Systems) (human) (UniProt Q9NR61); test: ELISA, DLL4 coated, Fab 25 nM
[12] = biological target: recombinant human DLL4 (Cat# 1506-D4/CF, R&D Systems) (human) (UniProt Q9NR61); test: ELISA, DLL4 coated, Fab 0.74 nM
[13] = biological target: recombinant human DLL4 (Cat# 1506-D4/CF, R&D Systems) (human) (UniProt Q9NR61); test: ELISA, DLL4 coated, Fab […]
[14] = biological target: recombinant human DLL4 (Cat# 1506-D4/CF, R&D Systems) (human) (UniProt Q9NR61); test: ELISA, DLL4 coated, Fab 2.22 nM
[15] = biological target: recombinant human DLL4 (Cat# 1506-D4/CF, R&D Systems) (human) (UniProt Q9NR61); test: ELISA, DLL4 coated, Fab 20 nM

Chain of recombinant mouse DLL4 (Cat# 1389-D4-050/CF, R&D Systems) (mouse) (Q9JI71 28-525 limits assumed): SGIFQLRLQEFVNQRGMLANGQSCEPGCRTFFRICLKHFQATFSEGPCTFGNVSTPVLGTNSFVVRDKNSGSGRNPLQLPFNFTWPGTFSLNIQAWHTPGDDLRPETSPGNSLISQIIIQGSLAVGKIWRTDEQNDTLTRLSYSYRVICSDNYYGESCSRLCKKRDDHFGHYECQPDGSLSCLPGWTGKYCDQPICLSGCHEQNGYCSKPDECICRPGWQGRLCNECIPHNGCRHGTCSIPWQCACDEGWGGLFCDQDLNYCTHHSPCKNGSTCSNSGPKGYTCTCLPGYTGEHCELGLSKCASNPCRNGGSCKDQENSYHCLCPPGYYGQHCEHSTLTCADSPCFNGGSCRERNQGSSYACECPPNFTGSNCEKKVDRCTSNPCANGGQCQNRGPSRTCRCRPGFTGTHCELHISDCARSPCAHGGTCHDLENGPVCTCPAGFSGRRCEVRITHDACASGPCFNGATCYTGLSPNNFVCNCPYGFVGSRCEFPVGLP

ELISA absorbance at 450 nm [8] [A450] | ELISA absorbance at 450 nm [9] [A450] | ELISA absorbance at 450 nm [10] [A450] | ELISA absorbance at 450 nm [11] [A450] | ELISA absorbance at 450 nm [12] [A450] | ELISA absorbance at 450 nm [13] [A450] | ELISA absorbance at 450 nm [14] [A450] | ELISA absorbance at 450 nm [15] [A450] | Binder | other results
0.24 | 0.28 | 0.21 | 0.2 | – | – | – | – | Fab VH5-51_IGHD5-18*01>3_IGHJ4*01 G100K/G104T G24T/S28R/G35V Y107F & V3-4_IGLJ1*01 (Fab, V domains shown) VH: EVQLVQSGAEVKKPGESLKISCKTSGYRFTSYWIVWVRQMPGKGLEWMGIIYPGDSDTRYSPSFQGQVTISADKSISTAYLQWSSLKASDTAMYYCARRKYSYTYDFFDYWGQGTLVTVSS VL: QTVVTQEPSFSVSPGGTVTLTCGLSSGSVSTSYYPSWYQQTPGQAPRTLIYSTNTRSSGVPDRFSGSILGNKAALTITGAQADDESDYYCVLYMGSGISYVFGTGTKVTVL | –
– | – | – | – | 0 | 0.034 | 0 | 0.006 | Fab VH5-51_IGHD5-18*01>3_IGHJ4*01 G100K/G104T G24A/S28R/G35V & V3-4_IGLJ1*01 M94R/S96M (Fab, V domains shown) VH: EVQLVQSGAEVKKPGESLKISCKASGYRFTSYWIVWVRQMPGKGLEWMGIIYPGDSDTRYSPSFQGQVTISADKSISTAYLQWSSLKASDTAMYYCARRKYSYTYDYFDYWGQGTLVTVSS VL: QTVVTQEPSFSVSPGGTVTLTCGLSSGSVSTSYYPSWYQQTPGQAPRTLIYSTNTRSSGVPDRFSGSILGNKAALTITGAQADDESDYYCVLYRGMGISYVFGTGTKVTVL | –
0.25 | 0.3 | 0.24 | 0.22 | – | – | – | – | Fab VH5-51_IGHD5-18*01>3_IGHJ4*01 G100K/G104T G24T/S28R/G35V D109Q & V3-4_IGLJ1*01 (Fab, V domains shown) VH: EVQLVQSGAEVKKPGESLKISCKTSGYRFTSYWIVWVRQMPGKGLEWMGIIYPGDSDTRYSPSFQGQVTISADKSISTAYLQWSSLKASDTAMYYCARRKYSYTYDYFQYWGQGTLVTVSS VL: QTVVTQEPSFSVSPGGTVTLTCGLSSGSVSTSYYPSWYQQTPGQAPRTLIYSTNTRSSGVPDRFSGSILGNKAALTITGAQADDESDYYCVLYMGSGISYVFGTGTKVTVL | –

Continued, binder first:

Binder | ELISA absorbance at 450 nm [8] [A450] | ELISA absorbance at 450 nm [9] [A450] | ELISA absorbance at 450 nm [10] [A450] | ELISA absorbance at 450 nm [11] [A450] | ELISA absorbance at 450 nm [12] [A450] | ELISA absorbance at 450 nm [13] [A450] | ELISA absorbance at 450 nm [14] [A450] | ELISA absorbance at 450 nm [15] [A450] | other results
Fab VH5-51_IGHD5-18*01>3_IGHJ4*01 G100K/G104T G24T/S28R/G35V (H:KT TRV) & V3-4_IGLJ1*01 M94R/S96M (L:RM) (Fab, V domains shown) VH: EVQLVQSGAEVKKPGESLKISCKTSGYRFTSYWIVWVRQMPGKGLEWMGIIYPGDSDTRYSPSFQGQVTISADKSISTAYLQWSSLKASDTAMYYCARRKYSYTYDYFDYWGQGTLVTVSS VL: QTVVTQEPSFSVSPGGTVTLTCGLSSGSVSTSYYPSWYQQTPGQAPRTLIYSTNTRSSGVPDRFSGSILGNKAALTITGAQADDESDYYCVLYRGMGISYVFGTGTKVTVL | – | – | – | – | – | – | – | – | ELISA absorbance at 450 nm [1]: 0.331 A450; ELISA absorbance at 450 nm [2]: 0.232 A450; ELISA absorbance at 450 nm [3]: 0.186 A450; ELISA absorbance at 450 nm [4]: 0.131 A450; ELISA absorbance at 450 nm [5]: 0.13 A450; ELISA absorbance at 450 nm [6]: 0.457 A450; ELISA absorbance at 450 nm [7]: 0.148 A450
Fab VH5-51_IGHD5-18*01>3_IGHJ4*01 G100K/G104T G24T/S28R/G35V Y105H & V3-4_IGLJ1*01 (Fab, V domains shown) VH: EVQLVQSGAEVKKPGESLKISCKTSGYRFTSYWIVWVRQMPGKGLEWMGIIYPGDSDTRYSPSFQGQVTISADKSISTAYLQWSSLKASDTAMYYCARRKYSYTHDYFDYWGQGTLVTVSS VL: QTVVTQEPSFSVSPGGTVTLTCGLSSGSVSTSYYPSWYQQTPGQAPRTLIYSTNTRSSGVPDRFSGSILGNKAALTITGAQADDESDYYCVLYMGSGISYVFGTGTKVTVL | 0.2 | 0.23 | 0.21 | 0.19 | – | – | – | – | –
Fab VH5-51_IGHD5-18*01>3_IGHJ4*01 G104T & V3-4_IGLJ1*01 (Fab, V domains shown) VH: EVQLVQSGAEVKKPGESLKISCKGSGYSFTSYWIGWVRQMPGKGLEWMGIIYPGDSDTRYSPSFQGQVTISADKSISTAYLQWSSLKASDTAMYYCARRGYSYTYDYFDYWGQGTLVTVSS VL: QTVVTQEPSFSVSPGGTVTLTCGLSSGSVSTSYYPSWYQQTPGQAPRTLIYSTNTRSSGVPDRFSGSILGNKAALTITGAQADDESDYYCVLYMGSGISYVFGTGTKVTVL | 0.17 | 0.17 | 0.19 | 0.18 | – | – | – | – | –
Fab VH5-51_IGHD5-18*01>3_IGHJ4*01 G100K/G104T G24T/S28R/G35V Y105N & V3-4_IGLJ1*01 (Fab, V domains shown) VH: EVQLVQSGAEVKKPGESLKISCKTSGYRFTSYWIVWVRQMPGKGLEWMGIIYPGDSDTRYSPSFQGQVTISADKSISTAYLQWSSLKASDTAMYYCARRKYSYTNDYFDYWGQGTLVTVSS VL: QTVVTQEPSFSVSPGGTVTLTCGLSSGSVSTSYYPSWYQQTPGQAPRTLIYSTNTRSSGVPDRFSGSILGNKAALTITGAQADDESDYYCVLYMGSGISYVFGTGTKVTVL | 0.18 | 0.25 | 0.21 | 0.19 | – | – | – | – | –
Fab VH5-51_IGHD5-18*01>3_IGHJ4*01 G100K/G104T S28R & V3-4_IGLJ1*01 M94R/S96M (Fab, V domains shown) VH: EVQLVQSGAEVKKPGESLKISCKGSGYRFTSYWIGWVRQMPGKGLEWMGIIYPGDSDTRYSPSFQGQVTISADKSISTAYLQWSSLKASDTAMYYCARRKYSYTYDYFDYWGQGTLVTVSS VL: QTVVTQEPSFSVSPGGTVTLTCGLSSGSVSTSYYPSWYQQTPGQAPRTLIYSTNTRSSGVPDRFSGSILGNKAALTITGAQADDESDYYCVLYRGMGISYVFGTGTKVTVL | – | – | – | – | 0 | 0.001 | 0.003 | 0.011 | –
Fab VH5-51_IGHD5-18*01>3_IGHJ4*01 G100K/G104T G24L/S28R/G35V & V3-4_IGLJ1*01 M94R/S96M (Fab, V domains shown) VH: EVQLVQSGAEVKKPGESLKISCKLSGYRFTSYWIVWVRQMPGKGLEWMGIIYPGDSDTRYSPSFQGQVTISADKSISTAYLQWSSLKASDTAMYYCARRKYSYTYDYFDYWGQGTLVTVSS VL: QTVVTQEPSFSVSPGGTVTLTCGLSSGSVSTSYYPSWYQQTPGQAPRTLIYSTNTRSSGVPDRFSGSILGNKAALTITGAQADDESDYYCVLYRGMGISYVFGTGTKVTVL | – | – | – | – | 0 | 0 | 0 | 0.003 | –
Fab VH5-51_IGHD5-18*01>3_IGHJ4*01 G100K & V3-4_IGLJ1*01 (Fab, V domains shown) VH: EVQLVQSGAEVKKPGESLKISCKGSGYSFTSYWIGWVRQMPGKGLEWMGIIYPGDSDTRYSPSFQGQVTISADKSISTAYLQWSSLKASDTAMYYCARRKYSYGYDYFDYWGQGTLVTVSS VL: QTVVTQEPSFSVSPGGTVTLTCGLSSGSVSTSYYPSWYQQTPGQAPRTLIYSTNTRSSGVPDRFSGSILGNKAALTITGAQADDESDYYCVLYMGSGISYVFGTGTKVTVL | 0.19 | 0.2 | 0.19 | 0.18 | – | – | – | – | –
